The source of these data is US20220387586A1 (Hoffmann-La Roche, published 2022).

As a reminder, the IC50 is the concentration needed to halve the response being measured. The low end stands for greater potency, the high end for weaker potency. As a reminder, the EC50 is the concentration giving half of the maximal effect.

Where two headings read alike, the source gives them in different places.

In assay [1] the target is T1, PD1 on PD1+LAG3+ human U2OS cells (UniProt Q15116 25-288). The assay can be described thus: cell-based or functional assay.
A further assay concerns the target T2, biotinylated-Lag3 (UniProt P18627 23-450, limits assumed, biotinylated).
T2 construct: Probably a human LAG3 ECD construct; also called Lag3 (MHCII/ELISA)
T2 sequence (looked up): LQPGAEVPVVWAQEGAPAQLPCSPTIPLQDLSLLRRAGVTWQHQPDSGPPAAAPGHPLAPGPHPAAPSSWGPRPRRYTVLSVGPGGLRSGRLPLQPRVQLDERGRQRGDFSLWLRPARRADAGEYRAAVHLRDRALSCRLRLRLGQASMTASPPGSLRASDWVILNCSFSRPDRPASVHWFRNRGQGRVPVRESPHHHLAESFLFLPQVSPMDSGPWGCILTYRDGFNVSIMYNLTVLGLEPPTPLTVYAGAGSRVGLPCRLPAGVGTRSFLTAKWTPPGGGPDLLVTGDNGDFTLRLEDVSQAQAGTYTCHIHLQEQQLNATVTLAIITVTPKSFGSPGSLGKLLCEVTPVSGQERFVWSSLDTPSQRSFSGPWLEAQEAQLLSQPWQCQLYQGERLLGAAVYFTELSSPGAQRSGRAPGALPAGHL
The assay can be described thus: ELISA, inhibition of biotinylated-Lag3 binding to MHC-II on A375 cells (competitor MHC-II). The procedure: 25 μl/well of A375 cells (10000 cells/well) were seeded into tissue culture treated 384-well plates (Corning, 3701) and incubated at 37° C. overnight. […] After washing (1×90 μl in PBST) cells were fixed by addition of 30 μl/well glutaraldehyde to a final concentration of 0.05% (Sigma Cat.No: G5882), 10 min at room temperature. After washing (3×90 μl/well with PBST-buffer) 25 μl/well Poly-HRP40-Streptavidin (Fitzgerald, 65R-S104PHRPx) was added in a 1:2000 or 1:8000 dilution and incubated at RT for 1 h. After washing (3×90 μl/well with PBST-buffer) 25 μl/well TMB substrate (Roche, 11835033001) was added and incubated for 2 to 10 min. Measurement took place on a Tecan Safire 2 instrument at 370/492 nm.

Assay [2] deals with T3, biotinylated PD1-ECD-AviHis (human, UniProt Q15116 25-170, biotinylated).
T3 construct: also called huPD1; hu PD1; not shown: Avi-His tag
The assay can be described thus: ELISA on coated biotinylated PD1-ECD-AviHis (rel. EC50). The procedure: After washing (3×90 μl/well with PBST-buffer) 25 μl/well goat-anti-human H+L-POD (JIR, JIR109-036-098) was added in 1:5000 dilution and incubated at RT for 1 h on a shaker. After washing (3×90 μl/well with PBST-buffer) 25 μl/well of TMB substrate (Roche, 11835033001) was added and incubated until OD 2-3. Measurement took place at 370/492 nm.
For orientation: In an ELISA, binding on a coated surface is turned into a signal by an enzyme label.

For assay [3], the target named is T1, PD1 on PD1+LAG3+ human U2OS cells. The assay can be described thus: cell-based or functional assay. This is another data set of the same source.
The target of assay [4] is T4, full-length human PD1 on cells (human, UniProt Q15116 25-288).
T4 construct: also called CHO-PD1
The assay can be described thus: cell ELISA on CHO-K1 cells expressing full-length human PD1 (rel. EC50). The procedure:
(to avoid internalization). After washing carefully (1×90 μl/well PBST) cells were fixed by adding 30 μl/well 0.05% Glutaraldehyde (Sigma, Cat.No: G5882, 25%) diluted in 1×PBS-buffer and incubated for 10 min at RT. After washing (3×90 μl/well PBST) 25 μl/well secondary antibody was added for detection: goat-anti-human H+L-POD (JIR, JIR109-036-088)/Sheep-anti-mouse-POD (GE NA9310) followed by 1 h incubation at RT on shaker. After washing (3×90 μl/well PBST) 25 μl/well TMB substrate solution (Roche 11835033001) was added and incubated until OD 1.0-2.0. Plates were measured at 370/492 nm.

In assay [5] the target is T5, LAG3 on cells (recombinant CHO cells expressing Lag3) (human, UniProt P18627 29-525).
T5 construct: The cell ELISA paragraphs say only 'Lag3'; also called CHO-LAG3; Lag3 cells
T5 sequence: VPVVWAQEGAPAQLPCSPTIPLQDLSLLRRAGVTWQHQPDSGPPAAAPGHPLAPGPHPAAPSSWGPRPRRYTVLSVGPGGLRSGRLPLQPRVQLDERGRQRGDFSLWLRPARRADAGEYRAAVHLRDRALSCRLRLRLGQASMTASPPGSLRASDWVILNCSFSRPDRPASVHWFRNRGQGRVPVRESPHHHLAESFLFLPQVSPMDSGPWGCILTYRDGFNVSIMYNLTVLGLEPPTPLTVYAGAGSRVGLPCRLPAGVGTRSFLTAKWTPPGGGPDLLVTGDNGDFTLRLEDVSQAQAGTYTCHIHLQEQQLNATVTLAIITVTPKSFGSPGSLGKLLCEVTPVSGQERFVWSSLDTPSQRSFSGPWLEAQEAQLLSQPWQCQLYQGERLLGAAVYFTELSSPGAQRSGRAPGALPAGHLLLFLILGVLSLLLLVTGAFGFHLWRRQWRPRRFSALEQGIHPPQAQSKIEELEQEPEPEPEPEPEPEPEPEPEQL
The assay can be described thus: cell ELISA on recombinant CHO cells expressing Lag3 (rel. EC50). The method, then: After washing (1×90 μl in PBST) cells were fixed by addition of 30 μl/well glutaraldehyde to a final concentration of 0.05% (Sigma Cat.No: G5882), 10 min at room temperature. After washing (3×90 μl/well with PBST-buffer) 25 μl/well goat anti-Human Ig κ chain antibody-HRP conjugate (Milipore, AP502P) was added in a 1:1000 dilution and incubated at RT for 1 h. After washing (3×90 μl/well with PBST-buffer) 25 μl/well TMB substrate (Roche, 11835033001) was added and incubated for 6-10 min. Measurement took place on a Tecan Safire 2 instrument at 370/492 nm.

In assay [6] the target is T6, recombinant Human LAG-3 Fc Chimera Protein (R&D Systems, 2319-L3) (human, UniProt P18627 29-450).
T6 construct: Bought protein; also called huLAG3; not shown: Fc part of the chimera
T6 sequence: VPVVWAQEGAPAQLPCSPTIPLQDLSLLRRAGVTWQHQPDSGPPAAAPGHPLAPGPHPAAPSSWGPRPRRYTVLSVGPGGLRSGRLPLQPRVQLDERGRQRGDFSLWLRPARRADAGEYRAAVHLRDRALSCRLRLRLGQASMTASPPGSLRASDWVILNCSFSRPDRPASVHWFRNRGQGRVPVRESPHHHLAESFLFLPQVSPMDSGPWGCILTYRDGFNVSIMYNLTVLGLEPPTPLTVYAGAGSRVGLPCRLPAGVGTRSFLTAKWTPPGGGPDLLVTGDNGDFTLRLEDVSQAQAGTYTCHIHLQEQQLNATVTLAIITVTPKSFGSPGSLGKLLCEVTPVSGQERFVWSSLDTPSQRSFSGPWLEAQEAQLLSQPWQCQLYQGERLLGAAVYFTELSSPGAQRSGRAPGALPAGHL
The assay can be described thus: ELISA on coated Human LAG-3 Fc Chimera (rel. EC50). The method, then: After washing (3×90 μl/well with PBST-buffer) each well was incubated with 90 μl blocking buffer (PBS+2% BSA+0.05% Tween 20) for 1 h at room temperature. […] After washing (3×90 μl/well with PBST-buffer) 25 μl/well goat anti-Human Ig κ chain antibody-HRP conjugate (Milipore, AP502P) was added in a 1:2000 dilution and incubated at RT for 1 h. After washing (3×90 μl/well with PBST-buffer) 25 μl/well TMB substrate (Roche, 11835033001) was added and incubated for 2-10 min. Measurement took place on a Tecan Safire 2 instrument at 370/492 nm.

T1 sequence (Q15116 25-288): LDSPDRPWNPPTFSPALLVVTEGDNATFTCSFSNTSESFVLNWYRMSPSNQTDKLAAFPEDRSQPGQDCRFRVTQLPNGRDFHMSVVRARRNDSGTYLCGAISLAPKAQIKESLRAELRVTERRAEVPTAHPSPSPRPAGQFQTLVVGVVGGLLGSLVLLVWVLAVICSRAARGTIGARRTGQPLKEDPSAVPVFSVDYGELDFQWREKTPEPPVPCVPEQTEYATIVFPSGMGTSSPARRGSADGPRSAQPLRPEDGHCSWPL
T4 sequence (Q15116 25-288 limits assumed): as the sequence (Q15116 25-288) above
T3 sequence (Q15116 25-170): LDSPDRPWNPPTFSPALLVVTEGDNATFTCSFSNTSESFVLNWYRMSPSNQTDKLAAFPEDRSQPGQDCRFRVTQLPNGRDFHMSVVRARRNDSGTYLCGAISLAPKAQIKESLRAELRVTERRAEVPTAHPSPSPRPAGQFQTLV

B1: PD1/LAG3 8310 (bispecific antibody, human IgG1, kappa, L234A L235A)
heavy 1: not shown
heavy 2: EVQLLESGGGLVQPGGSLRLSCAASGFIFDDYTMNWVRQAPGKGLEWVAVISWDGGGTYYTDSVKGRFTISRDDFKNTLYLQMNSLRAEDTAVYYCAKGLTDTTLYGSDYWGQGTLVTVSSASTKGPSVFPLAPSSKSTSGGTAALGCLVEDYFPEPVTVSWNSGALTSGVHTFPAVLQSSGLYSLSSVVTVPSSSLGTQTYICNVNHKPSNTKVDEKVEPKSCDKTHTCPPCPAPEAAGGPSVFLFPPKPKDTLMISRTPEVTCVVVDVSHEDPEVKFNWYVDGVEVHNAKTKPREEQYNSTYRVVSVLTVLHQDWLNGKEYKCKVSNKALGAPIEKTISKAKGQPREPQVCTLPPSRDELTKNQVSLSCAVKGFYPSDIAVEWESNGQPENNYKTTPPVLDSDGSFFLVSKLTVDKSRWQQGNVFSCSVMHEALHNHYTQKSLSLSPGK
light 1: DIVMTQSPDSLAVSLGERATINCKASESVDTSDNSFIHWYQQKPGQSPKLLIYRSSTLESGVPDRFSGSGSGTDFTLTISSLQAEDVAVYYCQQNYDVPWTFGQGTKVEIKSSASTKGPSVFPLAPSSKSTSGGTAALGCLVKDYFPEPVTVSWNSGALTSGVHTFPAVLQSSGLYSLSSVVTVPSSSLGTQTYICNVNHKPSNTKVDKKVEPKSC
light 2: not shown
notes: 2+1 format: two LAG3 Fabs, one PD1 crossFab fused to the C-terminus of the Fc knob heavy chain
In the case of B1, the “EC50 [pM], dimerization binding assay (chemoluminescence)” value (“EC50 [pM], dimerization binding assay” below) was 114 pM in assay [1] and 28 pM in assay [3]. Besides, the IC50 in the assay with biotinylated-Lag3 amounted to 0.47 nM. For the same molecule, the EC50 amounted to 0.06 nM in assay [2], 0.34 nM in assay [4], 0.2 nM in assay [5] and 0.06 nM in assay [6].

B2: PD1/LAG3 8970 (bispecific antibody, human IgG1, kappa, L234A L235A)
heavy: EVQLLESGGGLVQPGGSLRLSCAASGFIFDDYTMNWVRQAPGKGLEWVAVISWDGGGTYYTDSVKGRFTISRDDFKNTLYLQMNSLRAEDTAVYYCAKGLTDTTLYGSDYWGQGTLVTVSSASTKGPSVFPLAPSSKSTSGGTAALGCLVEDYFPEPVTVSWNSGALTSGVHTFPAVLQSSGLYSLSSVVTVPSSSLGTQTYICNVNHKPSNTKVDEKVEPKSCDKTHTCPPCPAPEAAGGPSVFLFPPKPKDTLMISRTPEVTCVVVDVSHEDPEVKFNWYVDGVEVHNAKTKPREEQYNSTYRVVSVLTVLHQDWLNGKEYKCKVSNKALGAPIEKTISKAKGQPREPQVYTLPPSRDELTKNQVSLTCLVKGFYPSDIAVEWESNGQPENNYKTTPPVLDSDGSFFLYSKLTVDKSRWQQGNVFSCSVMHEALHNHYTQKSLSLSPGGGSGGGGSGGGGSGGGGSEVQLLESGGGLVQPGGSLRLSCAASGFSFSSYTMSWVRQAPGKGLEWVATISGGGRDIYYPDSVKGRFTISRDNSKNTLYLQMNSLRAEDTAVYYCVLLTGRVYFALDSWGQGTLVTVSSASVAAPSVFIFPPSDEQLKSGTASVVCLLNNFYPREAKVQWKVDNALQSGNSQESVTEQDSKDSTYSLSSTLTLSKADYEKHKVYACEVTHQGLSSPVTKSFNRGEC
light 1: DIVMTQSPDSLAVSLGERATINCKASESVDTSDNSFIHWYQQKPGQSPKLLIYRSSTLESGVPDRFSGSGSGTDFTLTISSLQAEDVAVYYCQQNYDVPWTFGQGTKVEIKSSASTKGPSVFPLAPSSKSTSGGTAALGCLVKDYFPEPVTVSWNSGALTSGVHTFPAVLQSSGLYSLSSVVTVPSSSLGTQTYICNVNHKPSNTKVDKKVEPKSC
light 2: not shown
notes: 2+2 format
In the case of B2, in assay [1], the “EC50 [pM], dimerization binding assay” value was found to be 83 pM. In addition, the IC50 with biotinylated-Lag3 stood at 0.45 nM. In addition, the EC50 in assay [2] was 0.05 nM; in assay [4] it was 0.46 nM; in assay [5], 0.2 nM; in assay [6], 0.04 nM.

B3: PD1/LAG3 8984 (bispecific antibody, human IgG1, kappa, L234A L235A)
heavy: not shown
light 1: DIVMTQSPDSLAVSLGERATINCKASESVDTSDNSFIHWYQQKPGQSPKLLIYRSSTLESGVPDRFSGSGSGTDFTLTISSLQAEDVAVYYCQQNYDVPWTFGQGTKVEIKSSASTKGPSVFPLAPSSKSTSGGTAALGCLVKDYFPEPVTVSWNSGALTSGVHTFPAVLQSSGLYSLSSVVTVPSSSLGTQTYICNVNHKPSNTKVDKKVEPKSC
light 2: not shown
notes: 2+2 format
As to B3, the “EC50 [pM], dimerization binding assay” value in assay [1] came out at 91 pM. For the same molecule, the half-inhibitory concentration (IC50) with biotinylated-Lag3 is 0.44 nM. Further, the EC50 in assay [2] worked out at 0.05 nM; in assay [4], 0.54 nM; in assay [5] it was 0.17 nM; in assay [6] it was 0.05 nM.
